# Test results taken from PMC4919518.
# T1: RsAgo delP45-W63 (Rhodobacter sphaeroides (ATCC 17025D-5), UniProt A4WYU7 1-777, del45-63)
# T1 sequence: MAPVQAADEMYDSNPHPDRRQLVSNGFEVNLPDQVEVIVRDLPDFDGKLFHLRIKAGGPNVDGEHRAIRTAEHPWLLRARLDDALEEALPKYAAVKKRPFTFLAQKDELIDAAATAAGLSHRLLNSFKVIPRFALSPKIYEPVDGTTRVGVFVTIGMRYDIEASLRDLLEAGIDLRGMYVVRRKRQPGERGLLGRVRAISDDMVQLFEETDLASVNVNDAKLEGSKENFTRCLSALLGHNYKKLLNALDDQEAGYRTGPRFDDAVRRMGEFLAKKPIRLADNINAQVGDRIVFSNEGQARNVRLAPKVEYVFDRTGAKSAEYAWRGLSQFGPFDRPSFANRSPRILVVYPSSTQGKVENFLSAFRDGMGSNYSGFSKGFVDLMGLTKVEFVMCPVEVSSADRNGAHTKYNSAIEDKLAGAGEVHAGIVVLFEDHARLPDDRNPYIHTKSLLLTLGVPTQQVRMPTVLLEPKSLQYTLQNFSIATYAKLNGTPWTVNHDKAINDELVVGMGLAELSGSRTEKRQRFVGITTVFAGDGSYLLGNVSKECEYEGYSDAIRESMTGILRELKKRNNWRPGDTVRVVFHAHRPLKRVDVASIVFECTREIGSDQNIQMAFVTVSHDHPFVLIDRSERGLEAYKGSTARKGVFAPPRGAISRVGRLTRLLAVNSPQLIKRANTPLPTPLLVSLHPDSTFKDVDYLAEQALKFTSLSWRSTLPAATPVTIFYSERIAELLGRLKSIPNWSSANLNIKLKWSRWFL
# T2: RsAgo WT (Rhodobacter sphaeroides (ATCC 17025D-5), UniProt A4WYU7 1-777)
# T2 sequence: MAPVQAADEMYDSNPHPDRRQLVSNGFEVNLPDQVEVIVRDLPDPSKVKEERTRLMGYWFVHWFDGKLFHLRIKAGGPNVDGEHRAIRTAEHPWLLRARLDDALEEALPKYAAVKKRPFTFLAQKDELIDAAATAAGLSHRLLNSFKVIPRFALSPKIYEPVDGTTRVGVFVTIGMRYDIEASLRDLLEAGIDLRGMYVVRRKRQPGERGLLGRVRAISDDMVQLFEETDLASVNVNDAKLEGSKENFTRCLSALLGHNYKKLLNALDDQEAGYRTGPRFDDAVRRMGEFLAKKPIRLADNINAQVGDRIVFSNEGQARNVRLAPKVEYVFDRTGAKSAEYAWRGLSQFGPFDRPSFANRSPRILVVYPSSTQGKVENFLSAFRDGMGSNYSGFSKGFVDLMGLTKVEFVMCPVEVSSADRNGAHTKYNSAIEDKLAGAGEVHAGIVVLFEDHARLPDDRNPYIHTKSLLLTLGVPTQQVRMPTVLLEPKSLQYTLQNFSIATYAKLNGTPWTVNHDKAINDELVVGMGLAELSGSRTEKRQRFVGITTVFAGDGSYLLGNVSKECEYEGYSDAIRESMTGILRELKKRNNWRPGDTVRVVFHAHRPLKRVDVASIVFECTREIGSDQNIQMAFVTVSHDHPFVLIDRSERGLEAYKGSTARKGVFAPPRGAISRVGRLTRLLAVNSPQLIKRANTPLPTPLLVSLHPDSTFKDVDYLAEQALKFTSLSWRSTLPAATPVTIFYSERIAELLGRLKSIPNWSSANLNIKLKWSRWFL
# T3: RsAgo delN20 (Rhodobacter sphaeroides (ATCC 17025D-5), UniProt A4WYU7 21-777, del1-20)
# T3 sequence: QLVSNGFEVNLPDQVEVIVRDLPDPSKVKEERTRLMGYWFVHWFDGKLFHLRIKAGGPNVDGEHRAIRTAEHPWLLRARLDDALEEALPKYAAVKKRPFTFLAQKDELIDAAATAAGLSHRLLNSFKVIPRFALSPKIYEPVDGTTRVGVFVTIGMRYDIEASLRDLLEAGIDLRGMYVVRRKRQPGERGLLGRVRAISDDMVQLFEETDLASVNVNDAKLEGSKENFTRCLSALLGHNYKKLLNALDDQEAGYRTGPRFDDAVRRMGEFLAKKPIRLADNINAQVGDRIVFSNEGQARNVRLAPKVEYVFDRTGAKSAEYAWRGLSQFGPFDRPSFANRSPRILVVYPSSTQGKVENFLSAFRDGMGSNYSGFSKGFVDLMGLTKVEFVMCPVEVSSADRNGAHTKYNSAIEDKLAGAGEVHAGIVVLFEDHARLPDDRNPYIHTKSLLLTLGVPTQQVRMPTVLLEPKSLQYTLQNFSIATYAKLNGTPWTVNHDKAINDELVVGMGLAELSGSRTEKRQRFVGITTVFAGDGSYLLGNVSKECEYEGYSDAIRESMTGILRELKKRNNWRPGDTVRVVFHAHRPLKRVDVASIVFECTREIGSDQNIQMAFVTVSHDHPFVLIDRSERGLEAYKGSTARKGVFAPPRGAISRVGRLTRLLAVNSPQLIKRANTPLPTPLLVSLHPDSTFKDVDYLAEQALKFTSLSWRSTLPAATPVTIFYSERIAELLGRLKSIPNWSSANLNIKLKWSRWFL
# B1: guide 5'P-RNA + 70-base target DNA (DNA:RNA)
# RNA: UUACAACCUACUACCUCG
# DNA: TAAAATCTTAAAGTTATTATTTCTATACGAGGTAGTAGGTTGTAATTATCACAATTTATAGTAGTATTAA
# modifications: 5'-phosphate on guide
# B2: 5'P-RNA/DNA (RR/DD) (DNA:RNA)
# RNA: UUACAACCUACUACCUCG
# DNA: CGAGGTAGTAGGTTGTAA
# modifications: 5'-phosphate on guide
# B3: 18-nt guide RNA/18-nt target DNA (crystal) (DNA:RNA)
# RNA: UUACAACCUACUACCUCG
# DNA: CGAGGTAGTAGGTTGTAA
# modifications: 5'-phosphate on guide
# Key:
# RsAgo delP45-W63 = molecular target: T1, RsAgo delP45-W63; experiment: EMSA; RsAgo-guide RNA complex titrated on target DNA; FP: 20 mM HEPES-KOH pH 7.5, 200 mM NaCl, 5 mM MgCl2, 0.01 mg/ml E. coli total tRNA, 0.01% NP-40, 10 pM probe, 25 C; EMSA: 20 mM HEPES-KOH pH 7.5, 200 mM NaCl, 5
# RsAgo WT [1] = molecular target: T2, RsAgo WT; experiment: fluorescence polarization; 5 mM Mg2+; FP: 20 mM HEPES-KOH pH 7.5, 200 mM NaCl, 5 mM MgCl2, 0.01 mg/ml E. coli total tRNA, 0.01% NP-40, 10 pM probe, 25 C; EMSA: 20 mM HEPES-KOH pH 7.5, 200 mM NaCl, 5
# RsAgo WT [2] = molecular target: T2, RsAgo WT; experiment: EMSA; 5 mM Mg2+; FP: 20 mM HEPES-KOH pH 7.5, 200 mM NaCl, 5 mM MgCl2, 0.01 mg/ml E. coli total tRNA, 0.01% NP-40, 10 pM probe, 25 C; EMSA: 20 mM HEPES-KOH pH 7.5, 200 mM NaCl, 5
# RsAgo delN20 = molecular target: T3, RsAgo delN20; experiment: X-ray crystal structure (2 A); Mg2+ at guide phosphates 1 and 3 and L777 carboxylate; FP: 20 mM HEPES-KOH pH 7.5, 200 mM NaCl, 5 mM MgCl2, 0.01 mg/ml E. coli total tRNA, 0.01% NP-40, 10 pM probe, 25 C; EMSA: 20 mM HEPES-KOH pH 7.5, 200 mM NaCl, 5
binder,measurement,setting,value
B1,binding result,RsAgo delP45-W63,no binding
"UUACAACCUACUACCUCG (ssRNA, 5'-OH) [5'OH-RNA, FAM]",Kd,RsAgo WT [1],1140 ± 54 nM
"GUACAACCUACUACCUCG (ssRNA, 5'-phosphate) [5'G-RNA, FAM]",Kd,RsAgo WT [1],181 ± 13.3 nM
"TTACAACCTACTACCTCG (ssDNA, 5'-phosphate) [5'P-DNA, FAM]",Kd,RsAgo WT [1],42.6 ± 3.4 nM
B2,binding result,RsAgo WT [2],binds
"CUACAACCUACUACCUCG (ssRNA, 5'-phosphate) [5'C-RNA, FAM]",Kd,RsAgo WT [1],67 ± 3.5 nM
B3,binding result,RsAgo delN20,binds
"AUACAACCUACUACCUCG (ssRNA, 5'-phosphate) [5'A-RNA, FAM]",Kd,RsAgo WT [1],24.8 ± 1.7 nM
